The values below come from PMC5494197, “Deregulation of mitochondrial F1FO-ATP synthase via OSCP in Alzheimer’s disease” (Nature Communications, 2016).

The target of this assay is T1, Aβ1–42 peptide (UniProt P05067 672-713).
T1 construct: amyloid beta 1-42, cut product of the amyloid beta precursor protein (APP); For neurons and isolated mitochondria the peptide was prepared as oligomeric Aβ (HFIP film, DMSO, HAM'S F-12, 4 °C for 24 h); for the pull-down the methods say only 'Aβ peptide'; also called amyloid beta; oligomeric Aβ1–42; source: synthetic peptide, bought: GenicBio
Briefly: pull-down; GST-tagged OSCP on glutathione agarose as bait, incubated overnight at 4 °C with Aβ peptide; immunoblotting or coomassie staining. The note with it: both partners purified. Background: Immunoblotting shows a protein as a band on a membrane.

B1: GST-tagged OSCP (oligomycin sensitivity conferring protein), wild type (natural protein, human, UniProt P48047 24-213, looked up)
chain: FAKLVRPPVQVYGIEGRYATALYSAASKQNKLEQVEKELLRVAQILKEPKVAASVLNPYVKRSIKVKSLNDITAKERFSPLTTNLINLLAENGRLSNTQGVVSAFSTMMSVHRGEVPCTVTSASPLEEATLSELKTVLKSFLSQGQVLKLEAKTDPSILGGMIVRIGEKYVDMSVKTKIQKLGRAMREIV
notes: oligomycin sensitivity conferring protein (OSCP) subunit of mitochondrial F1FO-ATP synthase, human cDNA (Gene Name ATP5O, NCBI Gene ID 539) in pGEX-4t-1; it may tell the limits of the construct; also called GST-OSCP; wild-type OSCP
For B1, the binding result was “binds”.
